Assay [1] deals with recombinant mouse tau, longest isoform mTau40 (432 aa) (mouse, UniProt P10637-2 1-430, limits assumed). Put plainly: SPR (Biacore), mouse tau immobilised, antibody injected. As to the method: FIGS. 30A, 30B, 30C, 30D, 30E, 30F and 30G. Characterization of anti-tau antibodies by surface plasmon resonance (SPR) and Immunoblotting. The figure depicts SPR sensorgrams showing the binding of each anti-tau antibody towards immobilized recombinant human tau (longest isoforms hTau40, 441 aa) and immobilized mouse tau (longest isoforms mTau40, 432 aa). Each antibody was run with various concentrations (0.11, 0.23, 0.46, 0.90, […], 3.7, 7.5 μg/ml) and plots are shown in the corresponding color. (FIG. 30A) SPR sensorgrams of HJ9.3 antibody binding to immobilized human tau and immobilized mouse tau (FIG. 30B). (FIG. 30C) SPR sensorgrams of HJ9.4 antibody binding to immobilized human tau and immobilized mouse tau (FIG. 30D). SPR sensorgrams of HJ8.5 antibody binding to immobilized (FIG. 30E) human and (FIG. 30F) mouse tau. (FIG. 30G) RAB soluble fractions of 3 month old tau knockout (KO), 3 month old wild-type (WT), 3 month old P301 S (3 mo) and 9 month old P301 S (9 mo) mice were analyzed by immunoblot by using the indicated anti-tau antibodies.
Surface plasmon resonance Surface plasmon resonance experiments were performed on BIAcore 2000 surface plasmon resonance instrument (GE Healthcare-BIAcore). Biacore sensor chip CM-5 was activated by using EDC (1-ethyl-3-(3-dimethylaminopropyl)-carbodiimide) and NHS (N-hydroxysuccinimide) in a 1:1 ratio for 7 minutes. […]
A general note: SPR reads the build-up and loss of mass on a sensor chip optically.

The target in assay [2] is T1, recombinant human tau, longest isoform hTau40 (441 aa) (human, UniProt P10636-8 1-441).
T1 construct: range 1-441
Put plainly: SPR (Biacore), tau immobilised on CM-5 chip, antibody injected 0.78-400 nM. As to the method:
To characterize the binding affinity of the HJ8 and HJ9 series antibodies to mouse tau and human tau, Biacore's SPR technology was used. Biacore sensor chip CM-5 (Carboxymethylated dextran matrix) was activated by using EDC (1-ethyl-3-(3-dimethylaminopropyl)-carbodiimid) and NHS (N-hydroxysuccinimide) in 1:1 ratio. 2). Then ligand, either mouse tau or human Tau, were immobilized (20 ug/ml, in 10 mM sodium acetate pH 3.5) on Biacore CM-5 sensor chip at a flow rate of 5 μI/min. The remaining unbound area on the Biacore CM-5 sensor chip was deactivated by passage of 1 M ethanolamine pH 8.5.
Following preparation of the sensor chip surface, analytes (e.g. antibody) were injected with different concentrations (0.78 nM-400 nM) in filtered, degassed 0.01 M Hepes buffer, 0.15 M NaCl, 0.005% surfactant P20, pH 7.4 at a flow rate of 10 μI/min. All the samples were run in duplicates. After each cycle/run with single antibody concentration, the surface of the chip was regenerated by using 10 mM glycine pH 1.7, to remove the bound antibody/analyte, leaving the monomer/fibrils/ligand attached to the surface.

The target in assay [3] is T2, endogenous murine tau (mouse brain and ISF) (mouse, UniProt P10637-2 1-430, limits assumed).
T2 construct: Mixture of isoforms from tissue; also called mouse tau (Western blot, immunostaining, ISF immunoprecipitation)
In words: immunoblot of RAB soluble brain fractions of KO, WT and P301S mice.

Assay [4] concerns the target T1, recombinant human tau, longest isoform …. In words: SPR (BIAcore 2000), tau immobilised on CM-5 chip, antibody injected 0.11-7.5 µg/ml, 1:1 Langmuir global fit. As to the method:
Prior to testing in vivo, the binding affinities and epitopes of the antibodies, which are all lgG2b isotype, were determined. Human and mouse tau was immobilized on a sensor chip CMS for surface plasmon resonance (SPR) (FIGS. 30A-30G). […] The association (Kₐ) and dissociation (Kd) was calculated by using BIAevaluation software (Biacore AB) selecting Fit kinetics simultaneous Kd/Kₐ (Global fitting) with 1:1 (Langmuir) interaction model. […] The epitope of HJ9.3 was mapped to the repeat domain (RD) region, between amino acids 306-320. […] It binds to human tau (FIG. 30E) but not to mouse tau (FIG. 30F). […] The epitope of HJ8.5 was mapped to amino acids 25-30. All 3 anti-tau antibodies strongly recognized human tau fibrils on SPR (FIG. 31). Because the fibrils have multiple identical epitopes, the association and dissociation rates could not be directly calculate.
Surface plasmon resonance Surface plasmon resonance experiments were performed on BIAcore 2000 surface plasmon resonance instrument (GE Healthcare-BIAcore). Biacore sensor chip CM-5 was activated by using EDC (1-ethyl-3-(3-dimethylaminopropyl)-carbodiimide) and NHS (N-hydroxysuccinimide) in a 1:1 ratio for 7 minutes.

Broadly, the Kd is the equilibrium constant for the complex coming apart. By koff is commonly meant the rate constant with which the complex falls apart. Usually kon stands for the rate constant with which the complex forms.

T1 sequence (P10636 other isoform, or with tags, fused parts or gaps limits assumed): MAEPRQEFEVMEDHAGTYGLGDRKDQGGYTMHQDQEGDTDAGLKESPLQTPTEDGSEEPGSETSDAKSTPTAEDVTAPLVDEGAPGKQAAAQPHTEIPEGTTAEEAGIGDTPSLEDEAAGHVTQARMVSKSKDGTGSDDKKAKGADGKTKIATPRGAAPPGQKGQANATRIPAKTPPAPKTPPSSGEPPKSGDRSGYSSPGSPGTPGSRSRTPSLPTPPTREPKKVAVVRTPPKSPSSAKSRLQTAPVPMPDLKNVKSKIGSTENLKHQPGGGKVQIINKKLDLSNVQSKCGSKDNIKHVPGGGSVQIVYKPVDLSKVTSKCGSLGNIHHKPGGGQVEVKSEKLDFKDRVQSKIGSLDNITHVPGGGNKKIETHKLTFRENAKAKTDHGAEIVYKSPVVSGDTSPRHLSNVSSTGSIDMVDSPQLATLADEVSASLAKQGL
T2 sequence (P10637 other isoform, or with tags, fused parts or gaps limits assumed): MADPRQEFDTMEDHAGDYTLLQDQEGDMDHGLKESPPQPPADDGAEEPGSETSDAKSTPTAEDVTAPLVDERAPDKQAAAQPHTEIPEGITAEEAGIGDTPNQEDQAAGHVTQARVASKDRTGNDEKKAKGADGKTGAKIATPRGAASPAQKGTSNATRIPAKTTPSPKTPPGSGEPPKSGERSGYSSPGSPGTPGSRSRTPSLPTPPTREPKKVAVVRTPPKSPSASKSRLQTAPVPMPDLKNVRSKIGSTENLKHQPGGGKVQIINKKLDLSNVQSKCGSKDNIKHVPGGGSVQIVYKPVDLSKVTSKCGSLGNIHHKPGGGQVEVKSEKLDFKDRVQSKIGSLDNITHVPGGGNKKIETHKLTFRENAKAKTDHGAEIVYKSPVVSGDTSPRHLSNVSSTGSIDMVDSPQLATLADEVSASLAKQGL
Chain of recombinant mouse tau, longest isoform mTau40 (432 aa) (P10637 other isoform, or with tags, fused parts or gaps limits assumed): as above

B1: HJ8.5 (antibody, V domains shown)
VH: EVKVEESGGGLVQPGGSMKLSCVVSGFTFSNYWVNWVRQSPEKGLEWVAQIRLKSDNYATHYEESVKGRFTISRDDSKSSVYLQMNNLRAEDSGIYYCTNWEDYWGQGTTLTVSS
VL: DIVLTQSPASLAVSLGQRATISCRASQSVSTSRYSYIHWYQQKPGQPPKLLIKYASNLESGVPARFSGSGSGTDFTLNIHPLEEEDAATYYCHHSWEIPLTFGAGTKLELK
notes: also called HJ8.5B (biotinylated)
On to B1, for which the binding result in assay [1] was “no binding (tested: 7.5 µg/ml)”. Further, in assay [2], the dissociation constant Kd is 0.336 pM, the koff amounted to 4.34e-08 s⁻¹ and the association rate constant (kon) is 130000 M⁻¹ s⁻¹. In assay [3], the binding result is listed as “no binding”. Moreover, in assay [4], the Kd was determined as 0.336 pM, the koff is 4.34e-08 s⁻¹ and the kon is 130000 M⁻¹ s⁻¹.
